Laboratory results reported in patent US20070105771A1 (Y S THERAPEUTICS, published 2007).
Values joined by “and” are separate entries in the source; they are usually repeats but may differ in a detail not shown here. Identical values can stand only once.

What was measured:
[1] = target: T1, Purified recombinant human CD26 (rhDipeptidyl peptidase IV), R&D Systems CAT #1180-SE (human, UniProt P27487 29-766); assay: SPR (Biacore), CD26 preoccupied by the Fab; competitor 14D10 ascites
T1 construct: Bought recombinant protein; also called hu-CD26; soluble human CD26
Excerpt: A specificity analysis of selected Fabs comprising pairs of variant VH and VL sequences was done. […] The analysis was done using Biacore® as described in Example 1.

[2] = target: T1, Purified recombinant human CD26 …; assay: SPR (Biacore), CD26 on CM5 chip, Fab injected
Protocol: (§1) Fabs produced in E. coli as described below were diluted in PBS in a concentration of ˜0.5 μM for the assay. A typical recording included a 3 minute period of injection of the Fab followed by a period of 15 minutes of dissociation, and analysis was performed based on the raw data of the binding curves accordingly.

[3] = target: T1, Purified recombinant human CD26 …; assay: SPR (Biacore), Fab
[4] = target: T1, Purified recombinant human CD26 …; assay: SPR (Biacore), Fab; remark: listed apart in the source
Protocol: as §1
The CD26 binding partner was as shown below.

[5] = target: T1, Purified recombinant human CD26 …; assay: SPR (Biacore), Fab; remark: listed apart in the source
Protocol: as §1

[6] = target: T1, Purified recombinant human CD26 …; assay: SPR (Biacore), Fab; remark: listed apart in the source

T1 sequence (P27487 29-766 limits assumed): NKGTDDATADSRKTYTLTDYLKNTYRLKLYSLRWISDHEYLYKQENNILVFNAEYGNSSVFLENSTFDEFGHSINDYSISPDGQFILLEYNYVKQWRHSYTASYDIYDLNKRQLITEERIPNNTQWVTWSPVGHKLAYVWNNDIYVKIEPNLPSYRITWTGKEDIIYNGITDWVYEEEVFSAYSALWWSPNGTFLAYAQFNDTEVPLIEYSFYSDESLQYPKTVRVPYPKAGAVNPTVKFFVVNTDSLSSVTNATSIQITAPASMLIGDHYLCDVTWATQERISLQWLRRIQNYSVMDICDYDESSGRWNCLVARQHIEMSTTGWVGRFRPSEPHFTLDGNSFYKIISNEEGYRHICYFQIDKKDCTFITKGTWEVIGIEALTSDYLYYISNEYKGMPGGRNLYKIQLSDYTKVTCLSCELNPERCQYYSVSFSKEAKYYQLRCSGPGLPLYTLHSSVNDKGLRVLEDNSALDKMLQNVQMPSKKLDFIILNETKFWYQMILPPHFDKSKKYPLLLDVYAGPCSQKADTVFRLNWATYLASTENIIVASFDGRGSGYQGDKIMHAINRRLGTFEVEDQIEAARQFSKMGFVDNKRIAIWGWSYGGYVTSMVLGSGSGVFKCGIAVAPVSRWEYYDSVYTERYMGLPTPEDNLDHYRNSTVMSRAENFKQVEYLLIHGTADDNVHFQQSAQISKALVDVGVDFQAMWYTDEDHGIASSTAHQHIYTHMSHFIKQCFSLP

percent decrease in binding of 14D10 to CD26 [1]: ≥ 80%
Kd [2]: 1.63 nM
Kd [3]: 1.63 nM and 1.6 nM
Kd [4]: 1.63 nM
Kd [5]: 1.63 nM
Kd [6]: 1.63 nM
B1: CM03 Fab X369 (Fab, V domains shown)
VH: QVKLQESGPGLVQPSQTLSITCTVSGFSLTTYGVHWVRQSPGKGLEWLGVIWGGGRTDYDAAFISRLSISKDNSKSQVFFKMNSLQANDTAIYYCVRNRHDWFDYWGQGTTVTVSS
VL: DIQMTQSPSSLSASLGDRVTITCSASQGIRNSLNWYQQKPDGAVKLLIYYSSNLHSGVPSRFSGSGSGTDFSLTISNLEPEDIATYYCQQSIKLPFTFGSGTKLEIK
notes: Recombinant Fab made in E. coli; also called CM03 X369; CM03 (X369)
